The target in experiment [1] is T1, human serum albumin (human, UniProt P02768 25-609).
T1 construct: also called HSA; human SA
As to the kind of experiment: SPR (BIAcore), eight-point dilution kinetics. On the technique in general: Surface plasmon resonance follows binding to a sensor surface in real time, without labels.

For experiment [2], the target named is T2, mouse serum albumin (mouse, UniProt P07724 25-608).
T2 construct: also called MSA
As to the kind of experiment: SPR (BIAcore), eight-point dilution kinetics.

For experiment [3], the target named is T3, rat serum albumin (rat, UniProt P02770 25-608).
T3 construct: also called RSA
As to the kind of experiment: SPR (BIAcore), eight-point dilution kinetics.

Experiment [4] addresses T4, Cynomolgus monkey serum albumin (Cynomolgus monkey), A2V9Z4.
T4 chain: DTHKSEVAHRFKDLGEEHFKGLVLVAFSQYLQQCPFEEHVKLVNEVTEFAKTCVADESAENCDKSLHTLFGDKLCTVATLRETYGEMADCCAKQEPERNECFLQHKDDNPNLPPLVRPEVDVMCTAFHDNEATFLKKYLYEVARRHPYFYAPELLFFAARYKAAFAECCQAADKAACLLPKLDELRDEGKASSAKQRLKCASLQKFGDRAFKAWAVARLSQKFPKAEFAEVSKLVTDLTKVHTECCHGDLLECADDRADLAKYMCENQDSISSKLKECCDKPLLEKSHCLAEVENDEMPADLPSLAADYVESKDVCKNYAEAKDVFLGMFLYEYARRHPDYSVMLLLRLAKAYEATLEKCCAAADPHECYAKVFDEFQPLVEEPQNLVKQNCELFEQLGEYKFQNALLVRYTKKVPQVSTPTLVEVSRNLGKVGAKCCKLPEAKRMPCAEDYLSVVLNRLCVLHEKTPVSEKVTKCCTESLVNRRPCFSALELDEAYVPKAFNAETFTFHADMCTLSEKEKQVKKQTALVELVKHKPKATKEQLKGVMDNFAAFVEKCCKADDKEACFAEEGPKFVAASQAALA
Kind of experiment: SPR (BIAcore), eight-point dilution kinetics. The conditions noted are these: remark: other sources report otherwise.

Experiment [5] has as its target T5, Cynomolgus monkey serum albumin (Cynomolgus monkey, UniProt A2V9Z4 25-608).
T5 construct: also called CSA; cyno serum albumin
As to the kind of experiment: SPR (Biacore), cross-reactivity.

Experiment [6] deals with T1, human serum albumin. As to the kind of experiment: SPR (Biacore), cross-reactivity.
Experiment [7] has as its target T2, mouse serum albumin. As to the kind of experiment: SPR (Biacore), cross-reactivity.
In experiment [8] the target is T3, rat serum albumin. Kind of experiment: SPR (Biacore), cross-reactivity.
For experiment [9], the target named is T5, Cynomolgus monkey serum albumin. As to the kind of experiment: SPR (BIAcore), eight-point dilution kinetics.
Experiment [10] has as its target T1, human serum albumin. Kind of experiment: SPR (Biacore), cross-reactivity against four serum albumins.

B1: DOM7r-31-14 (VHH)
VHH: EVQLLESGGGLVQPGGSLRLSCTASGFTFRHYRMGWVRQAPGKGLEWVSWIRPDGTFTYYADSVKGRFTISRDNSKNTLYLQMNSLRAEDTAVYYCAKSYMADRFDYWGQGTLVTVSS
Turning to B1, the Kd with human serum albumin [1] is 58 nM; with mouse serum albumin [2], 6 nM; in the experiment with rat serum albumin [3], 46 nM; in experiment [4] it was 31000 nM.

B2: DOM7r-31 (VHH)
VHH: EVQLLESGGGLVQPGGSLRLSCTASGFTFRHYRMGWVRQAPGKGLEWVSWIRPDGTFTYYADSVKGRFTISRDNSKNTLYLQMNSLRAEDTAVYYCAKSYMGDRFDYWGQGTLVTVSS
notes: human VH dAb (AlbudAb)
Regarding B2, the binding result (in [5]; with human serum albumin [6]; in the experiment with mouse serum albumin [7]; in the experiment with rat serum albumin [8]) was “binds” each time.

B3: DOM7r-92-4 (VHH)
VHH: EVQLLESGGGLVQPGGSLRLSCAASGFTFDTSSMLWVRQAPGKGLEWVSVIHQSGTPTYYADSVKGRFTISRDNSKNTLYLQMNSLRAEDTAVYYCAKFPSTHGKFDYWGQGTLVTVSS
For the molecule B3, the Kd in [9] is 98 nM; in the experiment with human serum albumin [1] it was 130 nM; with mouse serum albumin [2], 110 nM; in the experiment with rat serum albumin [3], 260 nM.

B4: DOM7h-112 (VHH)
VHH: EVQLLESGGGLVQPGGSLRLSCAASGFTFGGYVMGWVRQAPGKGLEWVSAINRFGSSTYYADSVKGRFTISRDNSKNTLYLQMNSLRAEDTAVYYCAKGSLRHFDYWGQGTLVTVSS
notes: human VH immunoglobulin single variable domain (dAb, AlbudAb), not camelid
Turning to B4, the binding result was “binds” in experiment [5], “binds” with mouse serum albumin [7], “binds” with rat serum albumin [8] and “no binding” with human serum albumin [10].

B5: DOM7r-201 (VHH)
VHH: EVQLLESGGGLVQPGGSLRLSCAASGFTFNHYTMGWVRQAPGKGLEWVSLIHPSGTVIYYADSVKGRFTISRDNSKNTLYLQMNSLRAEDTAVYYCAKWSSRAFDYWGQGTLVTVSS
Regarding B5, the dissociation constant Kd in experiment [9] came out at 58 nM; in the experiment with human serum albumin [1] it was 60 nM; in the experiment with mouse serum albumin [2], 280 nM; with rat serum albumin [3], 240 nM.

B6: DOM7r-36-8 (VHH)
VHH: EVQLLESGGGLVQPGGSLRLSCAASGFTFNHYTMGWVRQAPGKGLEWVSLIHPSGTVIYYADSVKGRFTISRDNSKNTLYLQMNSLRAEDTAVYYCARWSSRAFDYWGQGTLVTVSS
As to B6, the Kd came to 92 nM in experiment [9], 67 nM in the experiment with human serum albumin [1], 520 nM with mouse serum albumin [2] and 210 nM with rat serum albumin [3].

B7: DOM7r-36 (VHH)
VHH: EVQLLESGGGLVQPGGSLRLSCAASGFTFNHYTMGWVRQAPGKGLEWVSLIHPSGTVTYYADSVKGRFTISRDNSKNTLYLQMNSLRAEDTAVYYCAKWSSRAFDYWGQGTLVTVSS
notes: human VH dAb (AlbudAb)
As for B7, the binding result (in [5]; in the experiment with human serum albumin [6]; with mouse serum albumin [7]; with rat serum albumin [8]) was “binds” each time.

B8: DOM7r-36-2 (VHH)
VHH: EVQLLESGGGLVQPGGSLRLSCAASGFTFNHYTMGWVRQAPGKGREWVSLIHPSGTVTYYADSVKGRFTISRDNSKNTLYLQMNSLRAEDTAVYYCAKWSSRAFDYWGQGTLVTVSS
Turning to B8, the dissociation constant (Kd) in experiment [9] was 180 nM; with human serum albumin [1], 150 nM; in the experiment with mouse serum albumin [2], 520 nM; with rat serum albumin [3] it was 190 nM.

B9: DOM7h-98 (VHH)
VHH: EVQLLESGGGLVQPGGSLRLSCAASGFTFGNYAMAWVRQAPGKGLEWVSSIDMVGIKTYYADSVKGRFTISRDNSKNTLYLQMNSLRAEDTAVYYCAKGFRIFDYWGQGTLVTVSS
notes: human VH dAb (AlbudAb)
On to B9, for which the binding result (in experiment [5]; with human serum albumin [6]; with mouse serum albumin [7]; with rat serum albumin [8]) was “binds” throughout.

B10: DOM7h-98-4 (VHH)
VHH: EVQLLESGGGLVQPGGSLRLSCAASGFTFGNYAMAWVRQAPGKGLEWVSSIDMVGIKTYYADSVKGRFTNSRDNSKNTLYLQMNSLRAEDTAVYYCARGFRIFDYWGQGTLVTVSS
Take B10: the Kd came out at 3600 nM in experiment [9], 2000 nM with human serum albumin [1], 810 nM with mouse serum albumin [2] and 580 nM in the experiment with rat serum albumin [3].

B11: DOM7r-38 (VHH)
VHH: EVQLLESGGGLVQPGGSLRLSCAASGFTFDNNAMGWVRQAPGKGLEWVSTISANGNATYYADSVKGRFTISRDNSKDTLYLQMNSLRAEDTAVYYCAKGFRRFDYWGQGTLVTVSS
notes: human VH dAb (AlbudAb)
For B11, the binding result (in experiment [5]; with human serum albumin [6]; with mouse serum albumin [7]; with rat serum albumin [8]) was “binds” throughout.

B12: DOM7r-35 (VHH)
VHH: EVQLLESGGGLVQPGGSLRLSCAASGFTFSLYRMVWVRQAPGKGLEWVSMISQFGNQTYYADSVKGRFTISRDNSKNTLYLQMNSLRAEDTAVYYCAKVRSWDQTGGRRTFDYWGQGTLVTVSS
notes: human VH dAb (AlbudAb); propensity to dimerise by MALLS
Take B12: the binding result (in experiment [5]; with human serum albumin [6]; with mouse serum albumin [7]; with rat serum albumin [8]) was “binds” in each case.

B13: DOM7r-29 (VHH)
VHH: EVQLLESGGGLVQPGGSLRLSCAASGFTFKDYDMTWVRQAPGKGLEWVSMISSSGLWTYYADSVKGRFTISRDNSKNTLYLQMNSLRAEDTAVYYCAKGFRLFPRTFDYWGQGTLVTVSS
notes: human VH dAb (AlbudAb)
In the case of B13, the binding result (in experiment [5]; in the experiment with human serum albumin [6]; in the experiment with mouse serum albumin [7]; with rat serum albumin [8]) was “binds” in each case.

A word on the Kd: it is the free concentration of one partner at which half of the binding sites on the other are occupied at equilibrium, for simple one-to-one binding.
